Measurements: the DeepSol protein solubility set

Experiment: soluble on expression in E. coli; label from the status in PepcDB or PDB records

| Sequence | soluble on expression in E. coli |
| --- | --- |
| MGSVEIPTKVLTNTSSQLKMPVVGMGSAPDFTCKKDTKDAIIEAIKQGYRHFDTAAAYGSEQALGEALKEAIELGLVTRDDLFVTSKLWVTENHPHLVIPALQKSLKTLQLDYLDLYLIHWPLSSQPGKFSFPIDVADLLPFDVKGVWESMEESLKLGLTKAIGVSNFSVKKLENLLSVATVLPAVNQVEMNLAWQQKKLREFCNAHGIVLTAFSPVRKGASRGPNEVMENDMLKEIADAHGKSVAQISLRWLYEQGVTFVPKSYDKERMNQNLRIFDWSLTKEDHEKIAQIKQNRLIPGPTKPGLNDLYDD | soluble |
| AMADTIVAVELDSYPNTDIGDPNYPHIGIDIKSIRSKSTARWNMQTGKVGTVHISYNSVAKRLSAVVSYSGSSSTTVSYDVDLNNVLPEWVRVGLSATTGLYKETNTILSWSFTSKLKTNSIADANSLHFSFNQFSQNPKDLILQGDAFTDSDGNLQLTKVSSSGDPQGNSVGRALFYAPVHIWEKSAVVASFDATFTFLIKSPDREPADGITFFIANTDTSIPSGSGGRLLGLFPDAN | soluble |
| MGSDKIHHHHHHMMKHRHPQLRFLGATDSVTGSRYLVEAAGKRILVDCGLFQGYKVLRDRNRIPFPVRPDSIDAILLTHAHLDHTGYVPALVRDGFNGPVYATEGTTELCTLLLPDSGHLQEEEAKYAYEHGSSRHSPPVPLYTAADAVRSLDSFREHGFDTPLELGGGIAATFLPAGHILGAAQIRLAVGQHSVHFTGDLGRTDDPLMFPPRGLGAADILVTESTYGNRKHSSLDPELQLGEIITRVAKKNGVIMIAAFAVGRAETLMLHLSRLRSKNAIPDIPVYLNSPMAIDASGMYQRHPDEHRLKQPEYEDMYKVAKMTRTVDDSKLLNLRGGPMVIISASGMLTGGRILHHIAEYGPDPKNAIILSGYQAGGTRGAALAAGVRQLRIYGEDVRIRAEVIQMESLSAHADSDGLIEWMRAAAREPRMTYITHGEPEASDALRIRIKRELGWRVRVPEYLEGISLEDPT | not soluble |
| MLLMRRFAFLTSSVYFKYIPIYSQYHYSSQFPINMNPKKVAQLPVHNKSTLPPQEIIDLFKITFLEELYPKDQDNEKSPLTEQIQAVKSDLYNRDYNAAFNNDSKRIAYCCRWSPSRATSYASVFAHFPELLKIIRCEIDDKDSNVLCIGGGAGGELVALASIFTLSRDFSSKFASALKIDNEVNKKPRNLNIQLVDIADWSTVVEKLTATIKSKWLYGDSEAESFNVNFTHKDCLQMTEPQDIKIYQGLDLITLLFTTNELFTQKKVESIKFLQRLNENCAPGCHLLILESAGSYSHITINNKKFPIQFLIDTILVGNRKDKGTTGPWSLVSENDSIWYRMDPKLDYSIPLENMRFFYRLYVKN | not soluble |
| MAHHHHHHMDYNVSTAAVVLDCGSFHSRAGFGGEKGPRLDVPTLVGYPRHRSIAMAAGMNEQEVGEEALLKQGILDVHHPIRNGFINDWGDVEKLWSHLFFNELRVSPETHCFLLTQPVNTPAAQRERTLEIMMETFHAHSLYLGTSQVLSLYSYGLTTGLVVDSGKDVTHAVPIHEGYALVRHVTQSPVAGAALTRYLGGLLREQGYALGTATEQELLNGAKEDLCYVRPRAHVQRGAVSDIYTPASGTSAGVSPAAASAASRRSTQLTGGIKGSADSASSATATTAVTAKESFMESAAEKHLDVDGGLTPTAVMGATEDFLLPDGQRIPLAAERYDTAEVLFNYSLLALMDSNGKDSSTYEPRCKVRTDMGDLFRPSFEKGISWLPFAAVNNCEAALRPQLYANMVLAGGSTSFPGLKARLESEVRQLYRESHPSEAVVPIQVRDMPCRTYSTWLGGSMLAQTAVFQHLVVSRKEYEEEGARVIHYKSL | not soluble |
| MGSSHHHHHHSSGLVPRGSHMLEDPMGTLIRATTLSRLSFIDVVNDNGFYQFEKPKEGRKYVATLDCSEGRGQDYHALQIIDITEFPYKQVAVYHSNTTSHFILPDIVFKYLMMYNECPVYIELNSTGVSIAKSLAMDLEYDNIICDSFIDLGMKQSKRSKAMGCSALKDLIEKDKLIINHKGTIQELRTFSEKGVSWAAEEGFHDDLVMSLVIFGWLTTQEKFAEYAGKDE | soluble |
| MDAFIVDPVQGELYSGLSHTELADIIRLADSVENQLNGGNSFLDVFSTYMGQVISEFMHSNDNRIELLQRRLHSCSFLVNIEEMSYIDEALQCPITLAIPQRGVFLRNAEGSRVCSLYDEMALSRIINDGMHHPLSREPITLSMLVAREQCEFDCSIGHFTVRSDCYSV | soluble |
| RPVGTIFVIGDTKEVMKHSHQLVPNPFKGHKINIMNPKVKPIIKEFSFLDGAFIISSTGRVVAAGRYLDVDPKKLEIDIPQGLGSRHLASAAITKVTKAIAITLSESGVIRVFKDGK | soluble |
| MGSDKIHHHHHHMTTLSDVAKEANVSKMTVSRVINHPEQVTPELRAMVEKAMEKLNYHPNSIAQALVNNRSNVVKFVTLEDIDTTEPYYTNLLFGFARGLNAKQYALQLVVDPTRIEKGRADGYLITGARNEDYDMFDKLDKPFVLFGENHRGYDFVDTDNQTAEKMATQYALDRLYKHIIFIGIDIKEPFEYSREAGYINTLQQHRLIPQIYRVSNHSHAAQKVIHEHFKEFKKDTCFICASDRIAVGVVRQLQDERARIPEDFGVIGFDGVFLDQVSNPKLTTIKQPIFEMGKMLAKMLLQKIDQSGSPQGELMVKPQLIRRETTR | not soluble |
| MGSDKIHHHHHHMEIFGKTFREGRFVLKEKNFTVEFAVEKIHLGWKISGRVKGSPGRLEVLRTKAPEKVLVNNWQSWGPCRVVDAFSFKPPEIDPNWRYTASVVPDVLERNLQSDYFVAEEGKVYGFLSSKIAHPFFAVEDGELVAYLEYFDVEFDDFVPLEPLVVLEDPNTPLLLEKYAELVGMENNARVPKHTPTGWCSWYHYFLDLTWEETLKNLKLAKNFPFEVFQIDDAYEKDIGDWLVTRGDFPSVEEMAKVIAENGFIPGIWTAPFSVSETSDVFNEHPDWVVKENGEPKMAYRNWNKKIYALDLSKDEVLNWLFDLFSSLRKMGYRYFKIDFLFAGAVPGERKKNITPIQAFRKGIETIRKAVGEDSFILGCGSPLLPAVGCVDGMRIGPDTAPFWGEHIEDNGAPAARWALRNAITRYFMHDRFWLNDPDCLILREEKTDLTQKEKELYSYTCGVLDNMIIESDDLSLVRDHGKKVLKETLELLGGRPRVQNIMSEDLRYEIVSSGTLSGNVKIVVDLNSREYHLEKEGKSSLKKRVVKREDGRNFYFYEEGERE | soluble |
| RLPKKHYTDSLDYALFKELIRVSVASNNKQILDYYEHHCHKKNPATACQYGYVLALLNNNNFQKAAEKLNPLLLQDNSNLNFQIAMAQAELGLSQYQSALSRLAELQNNFPDNYAALMAYAQGLLTANQPQKATAVLLKGSRQYKEDLPLCRELARAQA | not soluble |
| SSLENVVYNLVNAGHFDGRAGELPCAVIGEKVIAKIQNEDVVVFKNNTPFPTNVAVELFAKRSIRPHPELKLFRNLNIDVCWSHVLWDYAKDSVFCSSTYKVCKYTDLQCIESLNVLFDGRDNGALEAFKKCRNGVYINTTKIKSLSMIKGPQRADLNGVVVEKVGDSDVEFWFAVRKDGDDVIFSRTGSLEPSHYRSPQGNPGGNRVGDLSGNEALARGTIFTQSRLLSSFTPRSEMEKDFMDLDDDVFIAKYSLQDYAFEHVVYGSFNQKIIGGLHLLIGLARRQQKSNLVIQEFVTYDSSIHSYLITDENSGSSKSVCTVIDLLLDDFVDIVKSLNLKCVSKVVNVNVDFKDFQFMLWCNEEKVMTF | soluble |
| MKPPSSIQTSEFDSSDEEPIEDEQTPIHISWLSLSRVNCSQFLGLCALPGCKFKDVRRNVQKDTEELKSCGIQDIFVFCTRGELSKYRVPNLLDLYQQCGIITHHHPIADGGTPDIASCCEIMEELTTCLKNYRKTLIHSYGGLGRSCLVAACLLLYLSDTISPEQAIDSLRDLRGSGAIQTIKQYNYLHEFRDKLAAHLSSRDSQSRSVSR | soluble |
| MRRSNEPTKRKSTTGHGDYAEHKKRKSMSKEATPVLEENLTPDVMINNLHEIVTQILENQELPETAIIELEGFDATAATMEEYMQKREETRKLVTDSEFFDQKTELNLSVASLAGAQVEVDKRVTTRGMSRKLHDECGINEKDILYQGLDYHGTESRVSKELRDSRQASIIESCVDFQKQIQWKIGIMEKVKAKSGRSYPMSDGPSVRTRGGQDKQREEMKKQQKELEKSKKQRKTRAAGEQDPFKTPQKKIEFNALDERRIIENYQLEVASEIRTHRPFLSRSIAPVPFNIDILDDEEEEMEIS | not soluble |
| MGSDKIHHHHHHLFTSLVKQAEEMGLLDLSSVAIDATKVEAYEKSVPRKNIIQNGNAADWGIKSDTNGNPIKWFGYKLHIGTDVRSGLPIAMKVTPANYSDSSVALELVEKCCANTQSKIVYFLMDAGYDHREIYSVIRDKYHAQAIIALNKRGAKQPPEGFDWDGTPICSARYRMVYWGSYQGVNKFRCPHIMGKCDCPFGSAWCSDSNYGMVVKTKVKDDPRLFSSPHRGSANWQKQYNLRTYSERCFSRFKENLGLEDGLNVRKITKVETHAYLCAITMIAAVIAINQDSSTRSSAA | not soluble |
| MGSDKIHHHHHHMSADIVFDRGSPSDIDEIKTFTSNTWKVGYYTDLYSKLADTGTMDDYVDKVIERWVNDGSVYVLRVSGRPVATIHMEKLPDGSVMLGGLRVHPEYRGSRLGMSIMQETIQFLRGKTERLRSAVYSWNEPSLRLVHRLGFHQVEEYPIYTFQGGSTAVPALKPVNERYAGRWRCFFIDWKYMCSDDPDIIHEEYSNNLIVDGSTFVYFDIYEGGIDLFVNDSDDASSFIEKYRSMNGRITFYVRKALANGLPYVPASSLTVWEYRY | not soluble |
| MIITTTNGIEGKRVVEYKGIVCGEVISGVDFIKDFAAGLTNFFGGRSKSYEGELIEAREGAIREMKERAIQMGANAIIGVDIDYEVLGQGGNMLMVTASGTAVVIE | soluble |
| MIHRIKDEFVNVYIIDRGDHLVLIDTGIESTCEKILKKIEELGKPLKTVIITHYHLDHTGSLKCVKDGTGAKVVAHEEEVKAIEEKTGVRVDVPVKDGDVVEGLKVFHMPGHTRGSICLLDEESGALFVGDLMVERDGKLYEVPQQYSEDPMMNRERIKELLNIEFKAIYPAHGEPVLENAKEKVKELVESFSKGETN | soluble |
| MGSDKIHHHHHHMTGIALSPIGALWGIVGAKTHGTVEMGAALTHRGCYMAMEEGPTFSFGARHSAEIWPISVDDDIAVVYSGFPFVVDEETRTPRYLSAEDIRTEFLRFGADFFRVLCGHYAIAVYCYTRHRLILVRDAFGVQSLSWASSNENFAFSTEYKALLSLPWVERNLDHDAARGFVDDGWAPAGRTFLRHISMVLPGSILIWQNGNLETIHLRQDLCKTRPPFRPISVRHVEMTVRETIGWQANDFSPRYGVMLSSGVDSAVIAATLRRIRRDSEIHTFTVGYGYDDPEIIGASATASVLGTQHHEIIVRPDALTALLTDTIVAVDNPGGYEEFPCLYALHQEARQFVDIIFSGNAADTLFAGMPYHRDLLSTDDAIYRRLCNDLTVRDERLAAQELLAGRHGLNFRMPYAERILIDLALEIPDFQKLSPENDKIIFREAARQILPDEITMRPKRIQHLLYDDSMCSWLAERIEWICSSSLLRTHSLGELEGAAILPPRNLELTEESFKAAWNVVALATWASIYLA | not soluble |
| GPGSMKLLKFVNSDAPHTLADVQLRNQRLWFPCRHGNAAVAAKSWTLTAASPASVSGGYWLLDDDSQPICEITDVLLALPETAANAAGSSGTFAPRGVTDKDVDGIDFRSKMGRQMERERATYGATSKTATKSARTMMNAEEMTEKKNERMKREREAVAEAIEDNDASVMEPRKKERKHSKK | soluble |
